# Source: publication PMC4698670, “Fortilin potentiates the peroxidase activity of Peroxiredoxin-1 and protects against alcohol-induced liver damage in mice” (Scientific Reports, 2016)
# Molecular target: T1, recombinant human PRX1 (Sigma-Aldrich) (human, UniProt Q06830 1-199)
# T1 construct: recombinant human peroxiredoxin-1, bought; construct not described; also called recombinant PRX1; source: bought: Sigma-Aldrich
# T1 sequence (looked up): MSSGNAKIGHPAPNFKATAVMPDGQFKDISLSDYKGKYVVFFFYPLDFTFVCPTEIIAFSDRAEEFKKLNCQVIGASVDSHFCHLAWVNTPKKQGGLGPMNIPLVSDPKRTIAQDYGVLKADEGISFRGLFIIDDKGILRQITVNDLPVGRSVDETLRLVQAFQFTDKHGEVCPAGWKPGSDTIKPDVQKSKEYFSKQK
# Test: BLI; BLItz; biotinylated fortilin immobilized on streptavidin biosensors (1 μg/mL, 25 mM Tris, 150 mM NaCl, 0.1% Tween-20), then PBS; recombinant PRX1 in solution, 180 s association, 300 s dissociation in PBS; three independent experiments
# Settings: both partners purified
binder,measurement,value
"recombinant human fortilin tagged with the Strep-tag II (natural protein, UniProt P13693 1-172, looked up, biotin (biotinylated for the biolayer interferometry), human fortilin (TCTP) cDNA in the pESG-IBA5 vector; Biotinylated only for the biolayer interferometry; used without biotin in the activity and phosphorylation assays; also called recombinant fortilin; wild-type fortilin; source: 293T cells stably expressing it, purified (Strep-Tactin-Superflow resin)) MIIYRDLISHDEMFSDIYKIREIADGLCLEVEGKMVSRTEGNIDDSLIGGNASAEGPEGEGTESTVITGVDIVMNHHLQETSFTKEAYKKYIKDYMKSIKGKLEEQRPERVKPFMTGAAEQIKHILANFKNYQFFIGENMNPDGMVALLDYREDGVTPYMIFFKDGLEMEKC",Kd,0.125 µM
